In the supplement of paper PMC7125110:
± gives the standard error. Variants at the floor of the assay were thinned out.

B1: glmS ribozyme (parent)
chain: AUAAAAGCGCCAGAACUACAGAAAUGUAGUUGACGAGGAGGAGGUUUAUCGAAUUUUCGGCGGAUGCCUCCAAA

Experiments:
Conditions in all cases: with glucosamine-6-phosphate
glucosamine-6-phosphate [1] = variants of: B1; assay: self-cleavage kobs at 640 uM GlcN6P; higher = faster cleavage; RNA array
Summary of the method: (§1)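 Sequenced MiSeq chips were the platform: E. coli RNA polymerase transcribed barcoded ribozyme variants on them in situ, and a hybridised Cy3 probe tracked these at 37 °C. After glucosamine-6-phosphate (40 μM to 10 mM) in HEPES/KCl/Mg(OAc)2 buffer was flowed in, tiles were imaged over ~14 h. Signals normalised to baseline and to non-cleaving reference variants were reduced to per-tile medians and fit to one- or two-exponential decays to obtain kobs. kcat and KM were derived through weighted Michaelis–Menten fits across concentrations.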

glucosamine-6-phosphate [2] = variants of: B1; assay: self-cleavage kobs at 2500 uM GlcN6P; higher = faster cleavage; RNA array
Summary of the method: as §1

glucosamine-6-phosphate [3] = variants of: B1; assay: self-cleavage kobs at 10000 uM GlcN6P; higher = faster cleavage; RNA array
Summary of the method: as §1

Variant | self-cleavage kobs at 640 uM GlcN6P (glucosamine-6-phosphate [1]) | self-cleavage kobs at 2500 uM GlcN6P (glucosamine-6-phosphate [2]) | self-cleavage kobs at 10000 uM GlcN6P (glucosamine-6-phosphate [3])
G13U U45G C67G | < 1e-05 s⁻¹ |  | 
A12G A52G G62U | < 1e-05 s⁻¹ | < 1e-05 s⁻¹ | 
A12C A14U U30A U69G | 9e-05 ± 3.5e-05 s⁻¹ |  | 
A12G A14U A15U C71A | 6.44e-05 ± 1.9e-05 s⁻¹ | 7.44e-05 ± 1.8e-05 s⁻¹ | 
G13U G60U C70U | < 1e-05 s⁻¹ |  | 
C11U G29C U31A C34A A52C G60U | < 1e-05 s⁻¹ | < 1e-05 s⁻¹ | 
A12U A14C G29C | 4.97e-05 ± 2e-05 s⁻¹ | 0.000232 ± 7.7e-05 s⁻¹ | 
C11U G32U A33C | < 1e-05 s⁻¹ | < 1e-05 s⁻¹ | 
C11U G43A U46A U55G U65G G66A | < 1e-05 s⁻¹ | < 1e-05 s⁻¹ | 
C11U C16U U45A | 0.000806 ± 0.00021 s⁻¹ | 0.00127 ± 0.00037 s⁻¹ | 
C11G G59C C67G | 0.000111 ± 4e-05 s⁻¹ | 0.00023 ± 6.2e-05 s⁻¹ | 
A12G A14U C16G U46A A53U | < 1e-05 s⁻¹ |  | 
G13C A15U C61U | < 1e-05 s⁻¹ |  | 
A12C G32U A64G C70U | < 1e-05 s⁻¹ |  | 
A12U C67U C71U | 0.000764 ± 0.0002 s⁻¹ | 0.000592 ± 0.00018 s⁻¹ | 
A12U A48U C68A C70G | < 1e-05 s⁻¹ |  | 
A12U G44U U45C C70G | < 1e-05 s⁻¹ |  | 
A12G G26U G41U U47C C70G | 0.000117 ± 5.2e-05 s⁻¹ |  | 
A12U C16U A42U | 0.000196 ± 4.1e-05 s⁻¹ |  | 
G13U A36G U47C | < 1e-05 s⁻¹ |  | 
C11U U30G U57A C61U | < 1e-05 s⁻¹ |  | 
C11U G32C U47C C50A | < 1e-05 s⁻¹ |  | 

Variant | self-cleavage kobs at 640 uM GlcN6P (glucosamine-6-phosphate [1]) | self-cleavage kobs at 2500 uM GlcN6P (glucosamine-6-phosphate [2]) | self-cleavage kobs at 10000 uM GlcN6P (glucosamine-6-phosphate [3])
A12U C16A A53C | 0.000148 ± 3.3e-05 s⁻¹ | 0.000358 ± 7.9e-05 s⁻¹ | 
A12G A48C C68G | < 1e-05 s⁻¹ | < 1e-05 s⁻¹ | 
G13A A53C | 4.8e-05 ± 1.4e-05 s⁻¹ | 3.79e-05 ± 1.2e-05 s⁻¹ | 0.000139 ± 1.3e-05 s⁻¹
G13U C58A U69A | 6.33e-05 ± 2e-05 s⁻¹ |  | 
A12U A42G C68U | 0.00273 ± 0.00096 s⁻¹ |  | 
C11U C58A G62U | < 1e-05 s⁻¹ |  | 
C11U C58A A64C | < 1e-05 s⁻¹ |  | 
G13A G44U | < 1e-05 s⁻¹ | < 1e-05 s⁻¹ | 
A12C G32U | 5.84e-05 ± 2.3e-05 s⁻¹ | 8.84e-05 ± 1.6e-05 s⁻¹ | 0.000265 ± 5e-05 s⁻¹
A12C G60C C67U | < 1e-05 s⁻¹ |  | 
A12U U56C C71A | 5.04e-05 ± 1.6e-05 s⁻¹ | 0.00012 ± 4e-05 s⁻¹ | 
C11U U31A A53U C70G | 0.000209 ± 6.9e-05 s⁻¹ | 0.000251 ± 8.4e-05 s⁻¹ | 
A12G G29A U30A U45G G62A C71U | < 1e-05 s⁻¹ | < 1e-05 s⁻¹ | 
C11U U54G G59A | 0.00194 ± 0.00054 s⁻¹ | 0.00627 ± 0.002 s⁻¹ | 
A12G U31A | 5.56e-05 ± 9.9e-06 s⁻¹ | 7.25e-05 ± 1.1e-05 s⁻¹ | 0.000227 ± 2.4e-05 s⁻¹
G13U U69C | 7.4e-05 ± 2.2e-05 s⁻¹ | 0.000149 ± 3e-05 s⁻¹ | 0.00027 ± 7.1e-05 s⁻¹
G13A G51U | < 1e-05 s⁻¹ | < 1e-05 s⁻¹ | < 1e-05 s⁻¹
A12U U31G G41U | 0.00016 ± 5.9e-05 s⁻¹ | 0.000471 ± 0.00018 s⁻¹ | 
A12U A15G C67A | 0.00125 ± 0.00035 s⁻¹ | 0.00634 ± 0.0023 s⁻¹ | 
A12G G40U G41C | < 1e-05 s⁻¹ |  | 
A12U C16U A33C | 0.000251 ± 4.5e-05 s⁻¹ | 0.000381 ± 7.2e-05 s⁻¹ | 
G13A U31G A33U | < 1e-05 s⁻¹ | < 1e-05 s⁻¹ | 

Variant | self-cleavage kobs at 640 uM GlcN6P (glucosamine-6-phosphate [1]) | self-cleavage kobs at 2500 uM GlcN6P (glucosamine-6-phosphate [2]) | self-cleavage kobs at 10000 uM GlcN6P (glucosamine-6-phosphate [3])
G13A G35C G51U | < 1e-05 s⁻¹ |  | 
A12C G13A A14G C16A U17C A18U A39G C50U A52G | < 1e-05 s⁻¹ |  | 
G13C U30A G41U G63A A64C | < 1e-05 s⁻¹ | < 1e-05 s⁻¹ | 
A12C A64C G66C | < 1e-05 s⁻¹ |  | < 1e-05 s⁻¹
G13C G51A U69G | 4.99e-05 ± 1.8e-05 s⁻¹ |  | 
G13U G40A | 5.97e-05 ± 1.3e-05 s⁻¹ | 6e-05 ± 1.2e-05 s⁻¹ | 0.000183 ± 3.6e-05 s⁻¹
A12U U56A C58G | 0.000155 ± 2.6e-05 s⁻¹ | 0.000526 ± 9e-05 s⁻¹ | 
G13C A14U G40U G51C A53G U54A | < 1e-05 s⁻¹ |  | 
A12G A14G U57A C68A U69G | 0.000246 ± 8e-05 s⁻¹ | 7.01e-05 ± 3.5e-05 s⁻¹ | 
G13A G41A C50U G51U C67U | < 1e-05 s⁻¹ |  | 
G13U G38U | < 1e-05 s⁻¹ |  | 
G13A C61U | < 1e-05 s⁻¹ | < 1e-05 s⁻¹ | < 1e-05 s⁻¹
A12U C16U G63U G66C | < 1e-05 s⁻¹ | < 1e-05 s⁻¹ | 
A12G A33G G40C A52G U54A C58A | < 1e-05 s⁻¹ |  | 
G13U A42C A48U A53C G60C | < 1e-05 s⁻¹ | < 1e-05 s⁻¹ | 
A12C G29C U30G | 0.000163 ± 2.9e-05 s⁻¹ | 0.000329 ± 8.6e-05 s⁻¹ | 
A12C U31A U57A | 4.6e-05 ± 2.3e-05 s⁻¹ | 4.93e-05 ± 1.6e-05 s⁻¹ | 
C11G U49C C68G U69C | < 1e-05 s⁻¹ |  | 
A14C A64U C67U | < 1e-05 s⁻¹ |  | 
A12U A15C A48G A52U G66A C70G | < 1e-05 s⁻¹ |  | 
C11G U49A C71G | 8.96e-05 ± 3.1e-05 s⁻¹ |  | 
A14C C34A U46A | < 1e-05 s⁻¹ |  | 
